± gives the uncertainty stated by the source.

This series is described as follows: amyloid nucleation score (Sup35N fusion, yeast selection) (log enrichment); library NNK1; higher = more nucleation; inactive = no reads after selection. The method, boiled down: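 For the nucleation score, DiMSum gave the log enrichment of output over input reads, centred on the mode score of non-aggregating sequences. Psi-negative yeast expressing Sup35N fused to peptides of 20 random codons were induced with 100 μM copper sulfate for 24 hours and grown 7 days at 30°C on medium lacking adenine and uracil. Input and output plasmid inserts were Illumina-sequenced, and sequences with under 100 input reads were excluded.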
For the substance HMISVDITLVSLWRRIL, the amyloid nucleation score was -0.402 ± 0.81. Next, KHCTRFRVRRMYYDVTKILL: “inactive”; GKPDKVHARGWFTLVNRWLR: 0.399 ± 0.73; ARGPLKSGINQNVCSCGTSI: 0.118 ± 1.5. Next, HFCMGWVYLPELMYRFYMCF: -0.494 ± 0.35; HSYCLLLWYG: -1.74 ± 1.9; YKDYVDLERAFKLMPGQKLW: “inactive”.

Turning to YDLGLIVSYDLLSVKEVPDR, the amyloid nucleation score is 1.48 ± 0.55.

Substance FWNMWAYEMRFVLRNYAL came in with an amyloid nucleation score of -0.908 ± 0.43. Next, SVNLNFLFAL: 8.056 ± 0.056; DFFGWTNRNHQNSDSFLWDG: 0.69 ± 0.41. For SMQSSVDYKRGAMTFI, the amyloid nucleation score came to 0.424 ± 0.69. Next, LCELNSKAVYGSKMAHCYSS: -0.151 ± 0.33; YSEFRDSLRSGIPLVPFVIQ: 0.066 ± 0.88; RGISYLV: -0.212 ± 0.68.

In the case of VDLFYE, the amyloid nucleation score entry was “inactive”. Next, YRNGCTFGWWRWRR: 1.08 ± 0.28. Next, LISLLGSISMGPCIVRVYN: -0.259 ± 0.48; NNRHGYFNFCWWKEFLVKRE: “inactive”. Next, AGGVKSCTKRFN: -0.232 ± 1.5; FMRPVYHYMPSMTSYVSLDT: “inactive”. Regarding WLHGFKWRED, the amyloid nucleation score is -0.541 ± 0.68. Next, RSSKGIPLMENPLVYTMASR: 0.005 ± 1.7; DHYYVVAFFRQLWRCCLFRV: “inactive”.

Substance IRCLSMIWVTKDVLIIWRSQ showed an amyloid nucleation score of 0.159 ± 0.93. Turning to VNILDLKTHLRR, the amyloid nucleation score result was “inactive”.

In the case of DFKVAL, the amyloid nucleation score was -0.644 ± 0.35.

As to SDVYRGVVIVGHMIAKHMLV, the amyloid nucleation score was 0.494 ± 0.55. Turning to LCVSCARVKLLNRT, the amyloid nucleation score was -0.144 ± 0.55.

SFSCSVVLNRILMGIIYTCG had an amyloid nucleation score of -0.836 ± 0.55. Next, RARRGWSTGDEQHMSGKGIK: 0.097 ± 0.49; LQKFMLV: 0.638 ± 0.53; AYCRTNTNLRVLRIWNK: -0.611 ± 0.53.

For GWDYLFFLFTFCYV, the amyloid nucleation score is -0.771 ± 1.1. Next, MDSYLSSNCKCDTLDVGGNE: -1.17 ± 1.6; RAMTVLLGGNFQMIIKTFEL: 3.09 ± 0.074.

As to LRENPQLGVVTGLTLGSDLP, the amyloid nucleation score was determined as 0.19 ± 0.5. Next, SDGMFSYNVRFAQRSWMYRT: -0.14 ± 0.55; NPLTGAL: -0.406 ± 0.56. Next, FSVRGYSNLSAEDFINLKVP: -0.522 ± 1.4; LRYLQQWYST: 2.67 ± 0.19; ESLREVTLYATKSLWMNLRL: -1.83 ± 1.1. Next, YLELLPAYRLFTGLVVLLMI: 0.736 ± 0.13; RNQFDYDRWYVMRSHYRVIC: -0.526 ± 0.58.

On to YLAGILHTCLTLDSDVRFYT, for which the amyloid nucleation score was found to be 0.722 ± 0.54. Next, FINDYMIQYSLHLQVLMST: 3.95 ± 0.074; MILFSYNG: 1.7 ± 0.58; IWRLWWAKGPGSRLLRCRLY: -0.167 ± 0.42. Next, ILHLLRFNDIAFVKRLSAVL: -0.067 ± 0.17; SFRCGSNNSIHD: -2.02 ± 1.7.

Substance HVLADHYTMRGTNFVGYFHL gave an amyloid nucleation score of 4.88 ± 0.069. Next, TISKLGQPYRRNSKPL: -0.378 ± 0.41; VYAILKDFFYFFGVNFFCCF: 4.18 ± 0.06; AYSVRICLDFGKNG: “inactive”. Next, AFYRAFTPCISVPIRND: 0.765 ± 0.46.

In the case of VALDMYCFQYFQTNYYS, the amyloid nucleation score was found to be 8.411 ± 0.045. Next, LSNRVLEGFNSSWYISIRGF: -0.434 ± 1.7; ILRQIDIDATYVIFLEMSRL: 5.854 ± 0.047; YDASGLWMCKERAEGFMRNV: -0.273 ± 0.95. QLLSISRILLMNRELRRR came in with an amyloid nucleation score of -0.623 ± 1. MSCPRGILGSAIWTYSIGHS had an amyloid nucleation score of -0.232 ± 1.7. Next, DFPVAIVDLRVCWSYLL: 0.526 ± 0.68.

NIFVGLLTWLCVKLCMGMFV showed an amyloid nucleation score of -0.633 ± 0.94. Regarding YRKFHPGKRL, the amyloid nucleation score is 0.193 ± 0.58. Next, RGCVGRSFSDEES: -1.22 ± 1.5. DVYTLMGEVDELRSFRIIIR: the amyloid nucleation score was -0.458 ± 0.27. Next, SCKDSCTEYSGAIYVLVWVK: 0.604 ± 0.56; FVSVAQVEE: -1.2 ± 1. For YSWLVWGTSPV, the amyloid nucleation score came to 0.445 ± 0.38. KSLVNNCDSVIAL: the amyloid nucleation score came to 0.506 ± 0.25. Next, VVRDRNYPFYLIIGRSVVLG: 5.16 ± 0.061; LYHSVSSVEDLQSDACTSCM: 6.728 ± 0.046; DTAFMNMMLWARNYCWFSVQ: “inactive”. Next, MWDGGKVNVFTFRAKRPCVG: -0.215 ± 1.7; VDISEGCVSPVCFLMPCLMH: -0.238 ± 0.29. Next, VGYNNWTLVWGQGAMRVYSG: 0.033 ± 0.34; YLFSIVFCNV: 2.67 ± 0.29. YDVVRSGFLGVDNITRLMPR had an amyloid nucleation score of -0.27 ± 1.2.

QIVRTRFNRYR gave an amyloid nucleation score of -0.313 ± 1.1. LDEYINNEDSMFLCGILLSS came in with an amyloid nucleation score of 0.2 ± 0.3.

YGNFKVGFFVIRAWNWLNLI came in with an amyloid nucleation score of 0.319 ± 1.2.

The substance RTFGYGHHIAGGCRDYRVYR gave an amyloid nucleation score of -0.373 ± 0.62. Next, RVCCWHFTFVTVCCKLLSMT: 1.93 ± 0.23; FCLYISTIDID: 0.556 ± 0.59. Consider REVWRLFILSRVVGYKVIL, for which the amyloid nucleation score was found to be 0.142 ± 0.22.

The substance DLFYINIVMKSFVHWVNHLH showed an amyloid nucleation score of 0.416 ± 0.28. Next, SYNFLRPYLLFSHPFSYDSS: 0.21 ± 0.6; VIILPGGVCMMVC: 0.843 ± 0.41. Next, RTRSGRVICNGFPRYSTTAA: “inactive”; GCVLFDLSHL: -1.92 ± 2.4. Next, GLTRFGGPSTMIFMDL: -0.201 ± 0.8. DNNLGLSWLSILAGFGH yielded an amyloid nucleation score of -1.23 ± 0.91. Next, GISCFHW: 1.98 ± 0.18; CNISAITRFTEIWSRVTSVF: 1.59 ± 0.8. Next, YDRNRSMPSLLRP: “inactive”; NVKICDGAIIYMSSMASFEL: 4.79 ± 0.092. Substance PKMAPRNINVGRS registered an amyloid nucleation score of 0.26 ± 0.54. RLLPYILMTFLHEYVGAGYE: the amyloid nucleation score was found to be 0.561 ± 0.37. On to TDSILKRYGMSFDFWRSWRN, for which the amyloid nucleation score was 0.76 ± 0.23. Next, TRAWNGGCGALCRITFDPSC: 2.6 ± 0.13; IVSNDKWHMWLNRL: -0.022 ± 0.24. Next, RAMCKNQCSYVMR: 0.003 ± 0.37; IRSLLYYLFGFLMFWVIRIW: 0.226 ± 0.66.
